Results reported in the Human Domainome abundance scans (Beltran et al. 2025).
± gives the uncertainty stated by the source.

B1: SAM and SH3 domain-containing protein 1, residues 630 to 700; numbered along this chain, O94885 (parent)
chain: GRPPQPKSVEDLLDRINLKEHMPTFLFNGYEDLDTFKLLEEEDLDELNIRDPEHRAVLLTAVELLQEYDSN

Variants of: B1
Experiment: abundance fitness (aPCA) (normalised: wild type 0, dead -1); higher = more abundant; growth selection in yeast, the domain comes from the species named
Settings: Homo sapiens

Row | Variant | abundance fitness
1 | GRPPQPKSVEDLLDRINLKEHMATFLFNGYEDLDTFKLLEEEDLDELNIRDPEHRAVLLTAVELLQEYDSN | 0.113 ± 0.043
2 | GRPPQPKSVEDLLDRINLKEHMKTFLFNGYEDLDTFKLLEEEDLDELNIRDPEHRAVLLTAVELLQEYDSN | 0.043 ± 0.053
3 | GRPPQPKSVEDLLDRINLKEHMFTFLFNGYEDLDTFKLLEEEDLDELNIRDPEHRAVLLTAVELLQEYDSN | -0.434 ± 0.057
4 | GRPPQPKSVEDLLDRINLKEHMTTFLFNGYEDLDTFKLLEEEDLDELNIRDPEHRAVLLTAVELLQEYDSN | -0.019 ± 0.04
5 | GRPPQPKSVEDLLDRINLKEHMMTFLFNGYEDLDTFKLLEEEDLDELNIRDPEHRAVLLTAVELLQEYDSN | -0.268 ± 0.061
6 | GRPPQPKSVEDLLDRINLKEHMYTFLFNGYEDLDTFKLLEEEDLDELNIRDPEHRAVLLTAVELLQEYDSN | -0.271 ± 0.052
7 | GRPPQPKSVEDLLDRINLKEHMQTFLFNGYEDLDTFKLLEEEDLDELNIRDPEHRAVLLTAVELLQEYDSN | -0.017 ± 0.056
8 | GRPPQPKSVEDLLDRINLKEHMDTFLFNGYEDLDTFKLLEEEDLDELNIRDPEHRAVLLTAVELLQEYDSN | 0.199 ± 0.047
9 | GRPPQPKSVEDLLDRINLKEHMITFLFNGYEDLDTFKLLEEEDLDELNIRDPEHRAVLLTAVELLQEYDSN | -0.398 ± 0.063
10 | GRPPQPKSVEDLLDRINLKEHMVTFLFNGYEDLDTFKLLEEEDLDELNIRDPEHRAVLLTAVELLQEYDSN | -0.433 ± 0.049
11 | GRPPQPKSVEDLLDRINLKEHMGTFLFNGYEDLDTFKLLEEEDLDELNIRDPEHRAVLLTAVELLQEYDSN | 0.039 ± 0.043
12 | GRPPQPKSVEDLLDRINLKEHMSTFLFNGYEDLDTFKLLEEEDLDELNIRDPEHRAVLLTAVELLQEYDSN | 0.038 ± 0.037
13 | GRPPQPKSVEDLLDRINLKEHMHTFLFNGYEDLDTFKLLEEEDLDELNIRDPEHRAVLLTAVELLQEYDSN | -0.243 ± 0.052
14 | GRPPQPKSVEDLLDRINLKEHMLTFLFNGYEDLDTFKLLEEEDLDELNIRDPEHRAVLLTAVELLQEYDSN | -0.056 ± 0.037
15 | GRPPQPKSVEDLLDRINLKEHMRTFLFNGYEDLDTFKLLEEEDLDELNIRDPEHRAVLLTAVELLQEYDSN | -0.225 ± 0.045
16 | GRPPQPKSVEDLLDRINLKEHMETFLFNGYEDLDTFKLLEEEDLDELNIRDPEHRAVLLTAVELLQEYDSN | 0.282 ± 0.049
17 | GRPPQPKSVEDLLDRINLKEHMWTFLFNGYEDLDTFKLLEEEDLDELNIRDPEHRAVLLTAVELLQEYDSN | -0.103 ± 0.061
18 | GRPPQPKSVEDLLDRINLKEHMNTFLFNGYEDLDTFKLLEEEDLDELNIRDPEHRAVLLTAVELLQEYDSN | 0.102 ± 0.043
19 | GRPPQPKSVEDLLDRINLKEHMPTILFNGYEDLDTFKLLEEEDLDELNIRDPEHRAVLLTAVELLQEYDSN | -0.687 ± 0.081
20 | GRPPQPKSVEDLLDRINLKEHMPTMLFNGYEDLDTFKLLEEEDLDELNIRDPEHRAVLLTAVELLQEYDSN | -0.676 ± 0.073
21 | GRPPQPKSVEDLLDRINLKEHMPTPLFNGYEDLDTFKLLEEEDLDELNIRDPEHRAVLLTAVELLQEYDSN | -0.925 ± 0.084
22 | GRPPQPKSVEDLLDRINLKEHMPTCLFNGYEDLDTFKLLEEEDLDELNIRDPEHRAVLLTAVELLQEYDSN | -0.701 ± 0.08
23 | GRPPQPKSVEDLLDRINLKEHMPTELFNGYEDLDTFKLLEEEDLDELNIRDPEHRAVLLTAVELLQEYDSN | -0.623 ± 0.094
24 | GRPPQPKSVEDLLDRINLKEHMPTHLFNGYEDLDTFKLLEEEDLDELNIRDPEHRAVLLTAVELLQEYDSN | -0.924 ± 0.11
25 | GRPPQPKSVEDLLDRINLKEHMPTWLFNGYEDLDTFKLLEEEDLDELNIRDPEHRAVLLTAVELLQEYDSN | -0.891 ± 0.088
26 | GRPPQPKSVEDLLDRINLKEHMPTKLFNGYEDLDTFKLLEEEDLDELNIRDPEHRAVLLTAVELLQEYDSN | -0.784 ± 0.071

Row | Variant | abundance fitness
27 | GRPPQPKSVEDLLDRINLKEHMPTNLFNGYEDLDTFKLLEEEDLDELNIRDPEHRAVLLTAVELLQEYDSN | -0.612 ± 0.072
28 | GRPPQPKSVEDLLDRINLKEHMPTALFNGYEDLDTFKLLEEEDLDELNIRDPEHRAVLLTAVELLQEYDSN | -0.837 ± 0.072
29 | GRPPQPKSVEDLLDRINLKEHMPTSLFNGYEDLDTFKLLEEEDLDELNIRDPEHRAVLLTAVELLQEYDSN | -0.706 ± 0.056
30 | GRPPQPKSVEDLLDRINLKEHMPTGLFNGYEDLDTFKLLEEEDLDELNIRDPEHRAVLLTAVELLQEYDSN | -0.882 ± 0.076
31 | GRPPQPKSVEDLLDRINLKEHMPTQLFNGYEDLDTFKLLEEEDLDELNIRDPEHRAVLLTAVELLQEYDSN | -0.778 ± 0.078
32 | GRPPQPKSVEDLLDRINLKEHMPTVLFNGYEDLDTFKLLEEEDLDELNIRDPEHRAVLLTAVELLQEYDSN | -0.758 ± 0.063
33 | GRPPQPKSVEDLLDRINLKEHMPTDLFNGYEDLDTFKLLEEEDLDELNIRDPEHRAVLLTAVELLQEYDSN | -0.672 ± 0.093
34 | GRPPQPKSVEDLLDRINLKEHMPTTLFNGYEDLDTFKLLEEEDLDELNIRDPEHRAVLLTAVELLQEYDSN | -0.59 ± 0.061
35 | GRPPQPKSVEDLLDRINLKEHMPTLLFNGYEDLDTFKLLEEEDLDELNIRDPEHRAVLLTAVELLQEYDSN | -0.266 ± 0.041
36 | GRPPQPKSVEDLLDRINLKEHMPTYLFNGYEDLDTFKLLEEEDLDELNIRDPEHRAVLLTAVELLQEYDSN | -0.893 ± 0.091
37 | GRPPQPKSVEDLLDRINLKEHMPHFLFNGYEDLDTFKLLEEEDLDELNIRDPEHRAVLLTAVELLQEYDSN | -0.698 ± 0.064
38 | GRPPQPKSVEDLLDRINLKEHMPCFLFNGYEDLDTFKLLEEEDLDELNIRDPEHRAVLLTAVELLQEYDSN | -0.474 ± 0.057
39 | GRPPQPKSVEDLLDRINLKEHMPMFLFNGYEDLDTFKLLEEEDLDELNIRDPEHRAVLLTAVELLQEYDSN | -0.379 ± 0.056
40 | GRPPQPKSVEDLLDRINLKEHMPGFLFNGYEDLDTFKLLEEEDLDELNIRDPEHRAVLLTAVELLQEYDSN | -0.713 ± 0.056
41 | GRPPQPKSVEDLLDRINLKEHMPWFLFNGYEDLDTFKLLEEEDLDELNIRDPEHRAVLLTAVELLQEYDSN | -0.892 ± 0.095
42 | GRPPQPKSVEDLLDRINLKEHMPSFLFNGYEDLDTFKLLEEEDLDELNIRDPEHRAVLLTAVELLQEYDSN | -0.464 ± 0.044
43 | GRPPQPKSVEDLLDRINLKEHMPLFLFNGYEDLDTFKLLEEEDLDELNIRDPEHRAVLLTAVELLQEYDSN | -0.367 ± 0.04
44 | GRPPQPKSVEDLLDRINLKEHMPKFLFNGYEDLDTFKLLEEEDLDELNIRDPEHRAVLLTAVELLQEYDSN | -0.079 ± 0.046
45 | GRPPQPKSVEDLLDRINLKEHMPPFLFNGYEDLDTFKLLEEEDLDELNIRDPEHRAVLLTAVELLQEYDSN | -0.88 ± 0.069
46 | GRPPQPKSVEDLLDRINLKEHMPVFLFNGYEDLDTFKLLEEEDLDELNIRDPEHRAVLLTAVELLQEYDSN | -0.179 ± 0.041
47 | GRPPQPKSVEDLLDRINLKEHMPRFLFNGYEDLDTFKLLEEEDLDELNIRDPEHRAVLLTAVELLQEYDSN | -0.367 ± 0.04
48 | GRPPQPKSVEDLLDRINLKEHMPYFLFNGYEDLDTFKLLEEEDLDELNIRDPEHRAVLLTAVELLQEYDSN | -0.98 ± 0.097
49 | GRPPQPKSVEDLLDRINLKEHMPNFLFNGYEDLDTFKLLEEEDLDELNIRDPEHRAVLLTAVELLQEYDSN | -0.314 ± 0.051
50 | GRPPQPKSVEDLLDRINLKEHMPEFLFNGYEDLDTFKLLEEEDLDELNIRDPEHRAVLLTAVELLQEYDSN | -0.435 ± 0.077
51 | GRPPQPKSVEDLLDRINLKEHMPDFLFNGYEDLDTFKLLEEEDLDELNIRDPEHRAVLLTAVELLQEYDSN | -0.622 ± 0.064
52 | GRPPQPKSVEDLLDRINLKEHMPQFLFNGYEDLDTFKLLEEEDLDELNIRDPEHRAVLLTAVELLQEYDSN | -0.544 ± 0.064

Row | Variant | abundance fitness
53 | GRPPQPKSVEDLLDRINLKEHYPTFLFNGYEDLDTFKLLEEEDLDELNIRDPEHRAVLLTAVELLQEYDSN | 0.277 ± 0.038
54 | GRPPQPKSVEDLLDRINLKEHVPTFLFNGYEDLDTFKLLEEEDLDELNIRDPEHRAVLLTAVELLQEYDSN | 0.046 ± 0.035
55 | GRPPQPKSVEDLLDRINLKEHWPTFLFNGYEDLDTFKLLEEEDLDELNIRDPEHRAVLLTAVELLQEYDSN | 0.281 ± 0.041
56 | GRPPQPKSVEDLLDRINLKEHTPTFLFNGYEDLDTFKLLEEEDLDELNIRDPEHRAVLLTAVELLQEYDSN | 0.009 ± 0.04
57 | GRPPQPKSVEDLLDRINLKEHMPTFLENGYEDLDTFKLLEEEDLDELNIRDPEHRAVLLTAVELLQEYDSN | 0.491 ± 0.047
58 | GRPPQPKSVEDLLDRINLKEHMPTFLDNGYEDLDTFKLLEEEDLDELNIRDPEHRAVLLTAVELLQEYDSN | 0.446 ± 0.046
59 | GRPPQPKSVEDLLDRINLKEHMPTFLCNGYEDLDTFKLLEEEDLDELNIRDPEHRAVLLTAVELLQEYDSN | 0.272 ± 0.04
60 | GRPPQPKSVEDLLDRINLKEHMPTFRFNGYEDLDTFKLLEEEDLDELNIRDPEHRAVLLTAVELLQEYDSN | -0.111 ± 0.039
61 | GRPPQPKSVEDLLDRINLKEHMPTFFFNGYEDLDTFKLLEEEDLDELNIRDPEHRAVLLTAVELLQEYDSN | -0.167 ± 0.054
62 | GRPPQPKSVEDLLDRINLKEHMPTFPFNGYEDLDTFKLLEEEDLDELNIRDPEHRAVLLTAVELLQEYDSN | -0.825 ± 0.073
63 | GRPPQPKSVEDLLDRINLKEHMPTFHFNGYEDLDTFKLLEEEDLDELNIRDPEHRAVLLTAVELLQEYDSN | -0.44 ± 0.066
64 | GRPPQPKSVEDLLDRINLKEHMPTFYFNGYEDLDTFKLLEEEDLDELNIRDPEHRAVLLTAVELLQEYDSN | -0.181 ± 0.055
65 | GRPPQPKSVEDLLDRINLKEHMPTFCFNGYEDLDTFKLLEEEDLDELNIRDPEHRAVLLTAVELLQEYDSN | -0.464 ± 0.073
66 | GRPPQPKSVEDLLDRINLKEHMPTFKFNGYEDLDTFKLLEEEDLDELNIRDPEHRAVLLTAVELLQEYDSN | 0.034 ± 0.044
67 | GRPPQPKSVEDLLDRINLKEHMPTFWFNGYEDLDTFKLLEEEDLDELNIRDPEHRAVLLTAVELLQEYDSN | -0.533 ± 0.064
68 | GRPPQPKSVEDLLDRINLKEHMPTFAFNGYEDLDTFKLLEEEDLDELNIRDPEHRAVLLTAVELLQEYDSN | -0.117 ± 0.04
69 | GRPPQPKSVEDLLDRINLKEHMPTFMFNGYEDLDTFKLLEEEDLDELNIRDPEHRAVLLTAVELLQEYDSN | -0.043 ± 0.045
70 | GRPPQPKSVEDLLDRINLKEHMPTFVFNGYEDLDTFKLLEEEDLDELNIRDPEHRAVLLTAVELLQEYDSN | 0.034 ± 0.037
71 | GRPPQPKSVEDLLDRINLKEHMPTFDFNGYEDLDTFKLLEEEDLDELNIRDPEHRAVLLTAVELLQEYDSN | -0.667 ± 0.089
72 | GRPPQPKSVEDLLDRINLKEHMPTFTFNGYEDLDTFKLLEEEDLDELNIRDPEHRAVLLTAVELLQEYDSN | -0.225 ± 0.043
73 | GRPPQPKSVEDLLDRINLKEHMPTFSFNGYEDLDTFKLLEEEDLDELNIRDPEHRAVLLTAVELLQEYDSN | -0.337 ± 0.045
74 | GRPPQPKSVEDLLDRINLKEHMPTFEFNGYEDLDTFKLLEEEDLDELNIRDPEHRAVLLTAVELLQEYDSN | -0.188 ± 0.05
75 | GRPPQPKSVEDLLDRINLKEHMPTFQFNGYEDLDTFKLLEEEDLDELNIRDPEHRAVLLTAVELLQEYDSN | -0.11 ± 0.049
76 | GRPPQPKSVEDLLDRINLKEHMPTFGFNGYEDLDTFKLLEEEDLDELNIRDPEHRAVLLTAVELLQEYDSN | -0.697 ± 0.06
